Measurements published in US20050123978.

These substances were tested against T1, recombinant ANX7 (human annexin VII) (UniProt P20073).
T1 sequence: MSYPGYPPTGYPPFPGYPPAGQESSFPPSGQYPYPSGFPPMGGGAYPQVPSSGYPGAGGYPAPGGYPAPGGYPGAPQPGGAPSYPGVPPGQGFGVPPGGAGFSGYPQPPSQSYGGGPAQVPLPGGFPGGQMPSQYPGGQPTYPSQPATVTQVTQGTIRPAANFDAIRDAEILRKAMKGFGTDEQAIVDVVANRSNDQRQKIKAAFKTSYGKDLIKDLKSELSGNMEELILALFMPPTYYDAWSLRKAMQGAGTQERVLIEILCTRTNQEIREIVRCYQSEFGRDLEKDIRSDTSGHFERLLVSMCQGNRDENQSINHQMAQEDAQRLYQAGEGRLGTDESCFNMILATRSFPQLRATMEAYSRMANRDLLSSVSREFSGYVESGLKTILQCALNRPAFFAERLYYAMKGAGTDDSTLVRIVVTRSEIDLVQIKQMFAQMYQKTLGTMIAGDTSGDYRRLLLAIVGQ
In the case of protein kinase C, the “molar ratio of ^32[P]/ANX7 protein after a 30-minute incubation” value (“molar ratio of ^32[P]/ANX7 protein” below) is reported as “PKC (molar ratio=2.0)”.
With Ca^2+/calmodulin Kinase II the “in vitro phosphorylation of recombinant ANX7” value (“in vitro phosphorylation” below) was “no activity was detected when recombinant ANX7 was exposed to casein kinase 1, casein kinase II, or Ca^2+/calmodulin kinase II”.
cAMP-dependent protein Kinase was tested, and the “molar ratio of ^32[P]/ANX7 protein” value was “PKA (molar ratio=1.0)”.
For Casein kinase I, the “in vitro phosphorylation” value was “no activity was detected when recombinant ANX7 was exposed to casein kinase 1, casein kinase II, or Ca^2+/calmodulin kinase II”.
For epidermal growth factor receptor kinase, the “molar ratio of ^32[P]/ANX7 protein” value was “only five were active ... EGFR kinase (molar ratio not determined)”.
For casein Kinase II, the “in vitro phosphorylation” value was “no activity was detected when recombinant ANX7 was exposed to casein kinase 1, casein kinase II, or Ca^2+/calmodulin kinase II”.
With tyrosine kinase p60^src the “molar ratio of ^32[P]/ANX7 protein” value was “p60^src (molar ratio=1.0)”.
cGMP-dependent protein kinase was tested, and the “molar ratio of ^32[P]/ANX7 protein” value was “PKG (molar ratio=1.0)”.
